Measured values taken from patent publication US8058396B2, “Cystatin C as an antagonist of TGF-β and methods related thereto” (National Jewish Health, priority 2003, dated 2011).

Columns and labels:
[1] = system: HT1080 fibrosarcoma cells; assay: HT1080 cell invasion through Matrigel matrices; format: cell-based, human; conditions: retroviral expression in HT1080 cells; 48 hr; relative to GFP-expressing cells; p<0.05
Experimental: The effect CystC and D14CystC on the invasion of HT1080 and 3T3-L1 cells was determined as described previously (42). Briefly, upper chambers were coated with 100 μl of diluted Matrigel (1:50 in serum-free media), which was allowed to evaporate to dryness overnight at room temperature. The following morning the Matrigel mixtures were rehydrated and subsequently cultured with control-, CystC-, or D14CystC-expressing HT1080 or 3T3-L1 cells at a density of 100,000 cells/chamber. Cellular invasion was stimulated by addition of 2% serum to the lower chambers. Forty-eight hr later, the cells were washed twice in ice-cold PBS and immediately fixed for 15 min with 95% ethanol. Cells remaining in the upper chambers were removed with a cotton swab, whereas those remaining in the lower chamber were stained with crystal violet. Quantifying invading cells was determined through two independent measures, which yielded identical results: (i) manual counting under a light microscope, and (ii) crystal violet dye extraction by incubation of the membranes in 10% acetic acid, followed by spectrophotometry at 590 nm.
Cathepsin B is a lysosomal cysteine proteinase that functions in intracellular protein catabolism, as well as in bone resorption, hormone activation, and antigen processing (5). During tumorigenesis, cancer cells express a cathepsin B splice variant whose protein product is secreted into the extracellular milieu (5) and localized to the leading edge of invasive tumors (19), thereby promoting cancer cell invasion and metastasis. However, recent evidence has questioned the role of intracellular versus extracellular cathepsin B in promoting cancer cell invasion (20). To distinguish between these two possibilities, human HT1080 fibrosarcoma cells that stably express the murine ecotropic receptor (21) were infected with control (i.e., GFP), CystC, or Δ14CystC retrovirus. Afterward, cells that expressed GFP were isolated by flow cytometry to establish stable polyclonal populations of control-, CystC-, and Δ14CystC-expressing HT1080 cells (data not shown). The inventor chose to study HT1080 cells because they are highly invasive, and because they express large quantities of secreted cathepsin B and comparably little CystC (22). Thus, if extracellular cathepsin B mediates HT1080 cell invasion, it was hypothesized that overexpression of secreted CystC would attenuate their invasion through synthetic basement membranes.
Briefly, GFP-, CystC-, or Δ14CystC-expressing HT0180 cells were allowed to invade through Matrigel-coated membranes for 48 hr. Data shown in FIG. 1A are the mean (±SE) of three (Δ14CystC) and nine (GFP and CystC) independent experiments presented as the percent invasion relative to GFP-expressing HT1080 cells (***, p<0.05; Student's T-Test).

3T3-L1 cells [2] = assay: DNA synthesis in 3T3-L1 cells; format: cell-based, murine; conditions: data not shown
3T3-L1 cells [3] = assay: Migration of 3T3-L1 cells to fibronectin; format: cell-based, murine; conditions: data not shown
TGF-β1 = TGF-β1 (Homo sapiens, UniProt P01137); assay: Co-immunoprecipitation and affinity pull-down of CystC with TGF-β1; format: binding; conditions: data not shown
TGF-β1, sequence (P01137 279-390 limits assumed, species assumed): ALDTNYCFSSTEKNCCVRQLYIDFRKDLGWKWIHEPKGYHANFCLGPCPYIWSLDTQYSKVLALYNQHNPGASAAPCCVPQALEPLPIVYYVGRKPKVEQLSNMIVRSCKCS

[4] = system: NMuMG mammary epithelial cells; assay: TGF-β-mediated downregulation of E-cadherin in NMuMG cells; format: cell-based, murine; conditions: overexpression in NMuMG cells; TGF-β1 5 ng/ml, 36 hours
Experimental: The ability of TGF-β to alter actin cytoskeletal architecture and E-cadherin expression was monitored essentially as described (Piek et al., 1999). Briefly, control-, CystC-, or Δ14CystC-expressing NMuMG cells were allowed to adhere overnight to glass coverslips in 24-well plates (50,000 cells/well). The cells were stimulated the following day with TGF-β1 (5 ng/ml) for 0-36 hours at 37° C. In some experiments, control NMuMG cells were stimulated with TGF-β1 in the absence or presence of 10 μg/ml of recombinant GST, GST-CystC, or GST-Δ14CystC. Upon completion of agonist stimulation, the cells were washed in ice-cold PBS and immediately fixed in 3.7% formaldehyde. After extensive washing in PBS, the cells were blocked in PBS supplemented with 1.5% FBS, followed by incubation with rhodamine-phalloidin (0.25 μM). […]
The ability of TGF-β to alter E-cadherin expression also was monitored by immunoprecipitating E-cadherin from Buffer H/1% Triton X-100-solubilized (Schiemann et al., 2003) NMuMG whole cell extracts, followed by immunoblotting with anti-E-cadherin antibodies (1:1000 dilution).
To test this hypothesis, the inventor first examined whether CystC and a CystC mutant impaired in its ability to inhibit cathepsin protease activity (i.e., Δ14CystC) could antagonize TGF-β stimulation of EMT in MECs. […] TGF-β stimulation of EMT is studied routinely in murine NMuMG MECs, which readily undergo EMT when treated with TGF-β (Piek et al., 1999; Miettinen et al., 1994; Gotzmann et al., 2004). […] E-cadherin expression was monitored by indirect immunofluorescence with anti-E-cadherin antibodies.
In another experiment, NMuMG cells were infected with ecotropic retrovirus encoding either GFP (i.e., control), CystC, or Δ14CystC, and subsequently were isolated by FACS-sorting for GFP expression to yield stable polyclonal populations of control, CystC, and Δ14CystC-expressing cells. The expression and secretion of recombinant CystC proteins by infected NMuMG and NRK cells was monitored by immunoblotting conditioned-media with anti-CystC antibodies. […]

cathepsin B = cathepsin B (Homo sapiens, UniProt P07858); conditions: mutant lacks the cysteine inhibitor motif; reference 23; cited from earlier work

Molecule	HT1080 cell invasion through Matrigel matrices [1]	3T3-L1 cell DNA synthesis (3T3-L1 cells [2])	3T3-L1 cell migration to fibronectin (3T3-L1 cells [3])	direct physical interaction with TGF-β1 (TGF-β1)	TGF-β-mediated downregulation of E-cadherin [4]	inactivation of cathepsin B (cathepsin B)
CystC: full-length human Cystatin C (SEQ ID NO:2), C-terminally Myc- and (His)6-tagged, retrovirally expressed and secreted by the cells (protein, listed as Homo sapiens, C-terminal Myc and His6 tags) MAGPLRAPLLLLAILAVALAVSPAAGSSPGKPPRLVGGPMDASVEEEGVRRALDFAVGEYNKASNDMYHSRALQVVRARKQIVAGVNYFLDVELGRTTCTKTQPNLDNCPFHDQPHLKRKAFCSFQIYAVPWQGTMTLSKSTCQDA	significantly inhibited	failed to effect	failed to effect	failed to demonstrate a direct physical interaction	antagonized	
Δ14CystC: human CystC with deletion of positions 80 to 93 (conserved cysteine proteinase inhibitor motif), retrovirally expressed and secreted (protein, left off: small tags and cut ends) MAGPLRAPLLLLAILAVALAVSPAAGSSPGKPPRLVGGPMDASVEEEGVRRALDFAVGEYNKASNDMYHSRALQVVRARLGRTTCTKTQPNLDNCPFHDQPHLKRKAFCSFQIYAVPWQGTMTLSKSTCQDA	failed to affect				antagonized	unable to inactivate
